In publication PMC2915670:

Legend:
[1] = target: FMDV 2C(61–318) (foot-and-mouth disease virus, type [change])
FMDV 2C(34-318) = FMDV 2C(34-318) (Foot-and-mouth disease virus type O1K, UniProt P03305 1141-1425); experiment: EMSA
Chain of FMDV 2C(34-318) (P03305 1141-1425): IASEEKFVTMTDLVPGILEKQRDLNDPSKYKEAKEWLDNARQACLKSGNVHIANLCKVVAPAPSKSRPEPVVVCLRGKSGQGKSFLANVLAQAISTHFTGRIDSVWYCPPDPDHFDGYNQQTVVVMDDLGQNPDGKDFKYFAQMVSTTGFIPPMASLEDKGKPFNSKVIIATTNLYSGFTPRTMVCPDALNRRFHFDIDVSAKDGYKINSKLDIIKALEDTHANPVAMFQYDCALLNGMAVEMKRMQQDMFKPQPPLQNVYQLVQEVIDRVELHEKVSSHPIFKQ

## FMDV 2C(61–318) (domain or fragment)
[1]
  ATPase activity (pmol Pi/pmol protein/min): 0.46

B1: 12-base ssRNA (ssRNA)
RNA: CGCGAAUAAUUU
FMDV 2C(34-318)
  binding result: binds

B2: 20-base ssRNA (ssRNA)
RNA: AAUUCUAAGGGCCAGCGAGA
FMDV 2C(34-318)
  Kd: ~5 µM
